Experimental findings from paper PMC2199935 are described below.

The target of experiment [1] is beta-catenin (canine (endogenous in MDCK)) (UniProt B6V8E6). Description: co-IP.
Experiment [2] has as its target p120/p100 (anti-p120 immunoreactive material), canine (canine (endogenous in MDCK)). Description: co-IP.

In experiment [1], “p120/p100 (anti-p120 immunoreactive material), canine (natural protein)” gave a percent of the pool in association, normalised to 100% efficiency of 21%.

B1: beta-catenin (natural protein)
chain: MATQADLMELDMAMEPDRKAAVSHWQQQSYLDSGIHSGATTTAPSLSGKGNPEEEDVDTTQVLYEWEQGFSQSFTQEQVADIDGQYAMTRAQRVRAAMFPETLDEGMQIPSTQFDAAHPTNVQRLAEPSQMLKHAVVNLINYQDDAELATRAIPELTKLLNDEDQVVVNKAAVMVHQLSKKEASRHAIMRSPQMVSAIVRTMQNTNDVETARCTAGTLHNLSHHREGLLAIFKSGGIPALVKMLGSPVDSVLFYAITTLHNLLLHQEGAKMAVRLAGGLQKMVALLNKTNVKFLAITTDCLQILAYGNQESKLIILASGGPQALVNIMRTYTYEKLLWTTSRVLKVLSVCSSNKPAIVEAGGMQALGLHLTDPSQRLVQNCLWTLRNLSDAATKQEGMEGLLGTLVQLLGSDDINVVTCAAGILSNLTCNNYKNKMMVCQVGGIEALVRTVLRAGDREDITEPAICALRHLTSRHQEAEMAQNAVRLHYGLPVVVKLLHPPSHWPLIKATVGLIRNLALCPANHAPLREQGAIPRLVQLLVRAHQDTQRRTSMGGTQQQFVEGVRMEEIVEGCTGALHILARDVHNRIVIRGLNTIPLFVQLLYSPIENIQRVAAGVLCELAQDKEAAEAIEAEGATAPLTELLHSRNEGVATYAAAVLFRMSEDKPQDYKKRLSVELTSSLFRTEPMAWNETADLGLDIGAQGEPLGYRQDDPSYRSFHSGGYGQDALGMDPMMEHEMGGHHPGADYPVDGLPDLGHAQDLMDGLPPGDSNQLAWFDTDL
B1 returned a percent of the pool in association, normalised to 100% efficiency in experiment [2] of 24%.
